According to patent US20030203372A1, “Analysis method” (priority 2000, published 2003):

Key:
[1] = tested on: human breast and ovary tumors; assay: Custom gene array, breast and ovary tumors versus normal adjacent tissue; conditions: for gene expression level on custom gene array, Breast nor H / gene expression level on custom gene array, Breast nor K / gene expression level on custom gene array, Ovary nor E / gene expression level on custom gene array, Ovary nor F / gene expression level on custom gene array, Ovary nor G: normal adjacent tissue; for gene expression level on custom gene array, Breast nor H / gene expression level on custom gene array, Breast tum H: patient H; for gene expression level on custom gene array, Breast nor K / gene expression level on custom gene array, Breast tum K: patient K; for gene expression level on custom gene array, Breast tum H / gene expression level on custom gene array, Breast tum K / gene expression level on custom gene array, Ovary tum E / gene expression level on custom gene array, Ovary tum F / gene expression level on custom gene array, Ovary tum G: tumor tissue; for gene expression level on custom gene array, Ovary nor E / gene expression level on custom gene array, Ovary tum E: patient E; for gene expression level on custom gene array, Ovary nor F / gene expression level on custom gene array, Ovary tum F: patient F; for gene expression level on custom gene array, Ovary nor G / gene expression level on custom gene array, Ovary tum G: patient G
Excerpt: A study has been performed to examine the expression of these genes in a selection of breast and ovary tumors, comparing expression with normal adjacent tissue from the same patient. There is expected to be a large degree of variation between different patients, and the study here contains only 5 patients with a range of diagnoses.
Patients are designated as Letters:
E: person. Diagnosis: ovarian adenocarcinoma. Normal ovarian tissue derived from an age-matched separate individual.
: person. Diagnosis: poorly differentiated adenocarcinoma. Normal ovarian tissue derived from the same individual.
G: person. Diagnosis: moderately-differentiated adenocarcinoma. Normal ovarian tissue derived from the same individual.
H: person. Diagnosis: invasive ductal carcinoma. Normnal breast tissue derived from the same individual.
K: person. Diagnosis: invasive ductal carcinoma. Normal breast tissue derived from the same individual.
Data normalisation was done per-chip to correct for differences in labelling and hybridization efficiency. Per-gene normalisation was done such that the expression values of each gene are relative to the median value of that gene throughout the series of samples. By comparing the expression values under normal (nor) and tumor (turn) for a single patient, differences in expression between the normal and malignant tissue of that patient can be inferred.

human macrophages = assay: Custom gene array, macrophages with no cytokines, IL-10 or LPS + IFN, in normoxia and hypoxia; type: cell-based; conditions: for mRNA EXPRESSION (experimental condition) #1: #1 no cytokines/normoxia; for mRNA EXPRESSION (experimental condition) #2: #2 no cytokines/hypoxia; for mRNA EXPRESSION (experimental condition) #3: #3 IL-10/normoxia; for mRNA EXPRESSION (experimental condition) #4: #4 IL-10/hypoxia; for mRNA EXPRESSION (experimental condition) #5: #5 LPS/IFN/normoxia; for mRNA EXPRESSION (experimental condition) #6: #6 LPS/IFN/hypoxia
Experimental: Macrophages were derived and cultured as described elsewhere in the specification. A total of 6 experimental conditions were analysed, as shown below. Where cells were treated with cytokines or hypoxia (0.1% oxygen), this was for 6 hr. Lipopolysaccharide (LPS) (from E.coli 026:B6; Sigma), gamma Interferon (IFN) and Interleukin-10 (IL-10) were all used at a final concentration of 100 ng/ml. The effect of gamma Interferon and Lipopolysaccharide is to activate macrophages, with a Th1 biased phenotype, as found in many inflammatory conditions. Interleukin-10 is a Th2 cytokine and de-activates macrophages, and suppresses their effector functions.

[2] = Table 15, referenced to the median value of that gene throughout all 6 conditions
[3] = Table 17, referenced to median of the gene over 6 conditions

Row | Molecule | gene expression level on custom gene array, Breast nor H ([1]; Table 19) | gene expression level on custom gene array, Breast nor K ([1]; Table 19) | gene expression level on custom gene array, Breast tum H ([1]; Table 19) | gene expression level on custom gene array, Breast tum K ([1]; Table 19) | gene expression level on custom gene array, Ovary nor E ([1]; Table 19) | gene expression level on custom gene array, Ovary nor F ([1]; Table 19) | gene expression level on custom gene array, Ovary nor G ([1]; Table 19) | gene expression level on custom gene array, Ovary tum E ([1]; Table 19) | gene expression level on custom gene array, Ovary tum F ([1]; Table 19) | gene expression level on custom gene array, Ovary tum G ([1]; Table 19) | mRNA EXPRESSION (experimental condition) #1 (human macrophages; [2]) | mRNA EXPRESSION (experimental condition) #2 (human macrophages; [2]) | mRNA EXPRESSION (experimental condition) #3 (human macrophages; [2]) | mRNA EXPRESSION (experimental condition) #4 (human macrophages; [2]) | mRNA EXPRESSION (experimental condition) #5 (human macrophages; [2]) | mRNA EXPRESSION (experimental condition) #6 (human macrophages; [2]) | also measured
1 | p1K8 (nucleic acid, listed as Homo Sapiens) DNA: AGCACAGGACACAGCTGGGTTCTGAAGCTTCTGAGTTCTGCAGCCTCACCTCTGAGAAAACCTCTTTTCCACCAATACCATGAAGCTCTGCGTGACTGTCCTGTCTCTCCTCATGCTAGTAGCTGCCTTCTGCTCTCCAGCGCTCTCAGCACCAATGGGCTCAGACCCTCCCACCGCCTGCTGCTTTTCTTACACCGCGAGGAAGCTTCCTCGCAACTTTGTGGTAGATTACTATGAGACCAGCAGCCTCTGCTCCCAGCCAGCTGTGGTATTCCAAACCAAAAGAAGCAAGCAAGTCTGTGCTGATCCCAGTGAGACCTGGGTCCAGGAGTACGTGTATGACCTGGAACTGAACTGAGCTGCTCAGAGACAGGAAGTCTTCAGGGAAGGTCACCTGAGCCCGGATGCTTCTCCATGAGACACATCTCCTCCATACTCAGGACTCCTCTCCGCAGTTCCTGTCCCTTCTCTTAATTTAATCTTTTTTATGTGCCGTGTTATTGTATTAGGTGTCATTTCCATTATTTATATTAGTTTAGCCAAAGGATAAGTGTCCCCTATGGGGATGGTCCACTGTCACTGTTTCTCTGCTGTTGCAAATACATGGATAACACATTTGATTCTGTGTGTTTTCATAATAAAACTTTAAAATAAAATGCAGACAGTT | 1.94 | 1.75 | 0.68 | 1.62 | 1.00 | 2.48 | 1.94 | 0.56 | 2.29 | 0.54 | 0.82 | 0.40 | 1.15 | 0.38 | 91.4 | 68.4 | 
2 | p1K2 (nucleic acid, listed as Homo Sapiens) DNA: AAGTCTCAGAGGCTGGAGAGCAGAGCACCAAGATCGTTCTGGCAGGAACAGCCAGTGGGAGGTTCCAGCTGAGCGCTCCCCAGAGGTGAGCTGATCCCCAGCCACAGCACACAGGACCAGGCTGCGAGAACAGCATCATCAGCATCATGCTATTACAATCCCAAACCATGGGGGTTTCTCACAGCTTTACACCAAAGGGCATCACTATCCCTCAAAGAGAGAAACCTGGACACATGTACCAAAACGAAGATTACCTGCAGAACGGGCTGCCAACAGAAACCACCGTTCTTGGGACAGTCCAGATCCTGTGTTGCCTGTTGATTTCAAGTCTGGGGGCCATCTTGGTTTTTGCTCCCTACCCCTCCCACTTCAATCCAGCAATTTCCACCACTTTGATGTCTGGGTACCCATTTTTAGGAGCTCTGTGTTTTGGCATTACTGGATCCCTCTCAATTATCTCTGGAAAACAATCAACTAAGCCCTTTGACCTGAGCAGCTTGACCTCAAATGCAGTGAGTTCTGTTACTGCAGGAGCAGGCCTCTTCCTCCTTGCTGACAGCATGGTAGCCCTGAGGACTGCCTCTCAACATTGTGGCTCAGAAATGGATTATCTATCCTCATTGCCTTATTCGGAGTACTATTATCCAATATATGAAATCAAAGATTGTCTCCTGACCAGTGTCAGTTTAACAGGTGTCCTAGTGGTGATGCTCATCTTCACTGTGCTGGAGCTCTTATTAGCTGCATACAGTTCTGTCTTTTGGTGGAAACAGCTCTACTCCAACAACCCTGGGAGTTCATTTTCCTCGACCCAGTCACAAGATCATATCCAACAGGTCAAAAAGAGTTCTTCACGGTCTTGGATATAAGTAACTCTTGGCCTCAGAGGAAGGAAAAGCAACTCAACACTCATGGTCAAGTGTGATTAGACTTTCCTGAAATCTCTGCCATTTTAGATACTGTGAAACAAACTAAAAAAAAAAAAGCTTTTGTTTTGTATTTGTTTACTATGAGTCGTTATTTAATTTCTCTTGAAAATAATTTCCTCAAAGCCCAAGTCAATAAA | 1.00 | 0.79 | 0.49 | 1.52 | 0.47 | 1.30 | 2.32 | 0.29 | 1.06 | 0.31 |  |  |  |  |  |  | mRNA EXPRESSION (experimental condition) #1 (human macrophages; [3]): 1.30; mRNA EXPRESSION (experimental condition) #2 (human macrophages; [3]): 0.98; mRNA EXPRESSION (experimental condition) #3 (human macrophages; [3]): 0.51; mRNA EXPRESSION (experimental condition) #4 (human macrophages; [3]): 0.59; mRNA EXPRESSION (experimental condition) #5 (human macrophages; [3]): 1.11; mRNA EXPRESSION (experimental condition) #6 (human macrophages; [3]): 0.91
3 | p1F17 (nucleic acid, listed as Homo Sapiens) DNA: CAGCCTTATAAGCTGAGGGAGTGGAGAGGCCCGGGGCCAGGAAAGCAGAGACAGACAAAGCGTTAGGAGAAGAAGAGAGGCAGGGAAGACAAGCCAGGCACGATGGCCACCTTCCCACCAGCAACCAGCGCCCCCCAGCAGCCCCCAGGCCCGGAGGACGAGGACTCCAGCCTGGATGAATCTGACCTCTATAGCCTGGCCCATTCCTACCTCGGAGGTGGAGGCCGGAAAGGTCGCACCAAGAGAGAAGCTGCTGCCAACACCAACCGCCCCAGCCCTGGCGGGCACGAGAGGAAACTGGTGACCAAGCTGCAGAATTCAGAGAGGAAGAAGCGAGGGGCACGGCGCTGAGACAGAGCTGGAGATGAGGCCAGACCATGGACACTACACCCAGCAATAGAGACGGGACTGCGGAGGAAGGAGGACCCAGGACAGGATCCAGGCCGGCTTGCCACACCCCCCACCCCTAGGACTTATTCCCGCTGACTGAGTCTCTGAGGGGCTACCAGGAAAGCGCCTCCAACCCTAGCAAAAGTGCAAGATGGGGAGTGAGAGGCTGGGAATGGAGGGGCAGAGCCAGGAAGATCCCCCAGAAAAGAAAGCTACAGAAGAAACTGGGGCTCCTCCAGGGTGGCAGCAACAATAAATAGACACGCACGGCAGCCACAGCTTGGGTGTGTGTTCATCCTTGTTAAAAAAAAAAAAAAAAAAAAAAAAAA | 1.00 | 0.92 | 0.97 | 1.33 | 1.18 | 1.27 | 0.55 | 0.17 | 1.47 | 1.79 | 0.26 | 1.78 | 0.16 | 0.88 | 1.16 | 2.59 | gene expression level on custom gene array, Breast nor H ([1]; Table 18): 1.00; gene expression level on custom gene array, Breast nor K ([1]; Table 18): 0.92; gene expression level on custom gene array, Breast tum H ([1]; Table 18): 0.97; gene expression level on custom gene array, Breast tum K ([1]; Table 18): 1.33; gene expression level on custom gene array, Ovary nor E ([1]; Table 18): 1.18; gene expression level on custom gene array, Ovary nor F ([1]; Table 18): 1.27; gene expression level on custom gene array, Ovary nor G ([1]; Table 18): 0.55; gene expression level on custom gene array, Ovary tum E ([1]; Table 18): 0.17; gene expression level on custom gene array, Ovary tum F ([1]; Table 18): 1.47; gene expression level on custom gene array, Ovary tum G ([1]; Table 18): 1.79
